Experimental data: the supplement of paper PMC9732359
± gives the uncertainty stated by the source.

Experiment: protein stability index of a GFP-peptide fusion (yeast GPS) (PSI 1-4); higher = more stable; sorted into four equal gates, so the index is relative within each strain
How it was run: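 Plasmids in a pooled yeast library fused tiled 17-residue yeast protein peptides downstream of GFP and also expressed Cherry. Mid-log cultures grown without leucine were sorted into four equal gates by GFP/Cherry fluorescence ratio. Each gate's plasmids were PCR-amplified and Illumina-sequenced, and reads were matched to strains by barcodes. The protein stability index is derived by multiplying each gate's read frequency by its gate number and summing the results.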

Row | Sequence | protein stability index (doa10∆) | protein stability index (pdr5∆) | protein stability index (san1∆) | protein stability index (ubr1∆)
1 | YKALRGMVSHKTARGKA [RPL16A] | 2.45 ± 0.08 | 2.1 ± 0.06 | 2.51 ± 0.096 | 1.84 ± 0.12
2 | YKGMASNDERIVKRLYE [BRR2] | 3.33 ± 0.085 | 3.47 ± 0.083 | 3.31 ± 0.052 | 3.51 ± 0.047
3 | YKKPTGGIVTVRSEMGE [FAS1] | 2.66 ± 0.13 | 1.69 ± 0.069 | 1.32 ± 0.18 | 1.39 ± 0.082
4 | YKLFIWLVVPTIYNLQH [YML031W/NDC1] | 1.36 ± 0.033 | 1.51 ± 0.032 | 1.36 ± 0.059 | 1.26 ± 0.029
5 | YKVEHPFFARFKLRIQT [RPB11] | 2 ± 0.097 | 1.28 ± 0.057 | 1.37 ± 0.11 | 1.31 ± 0.16
6 | YKVENVTLYWNNAKLLT [ESC2] | 1.71 ± 0.059 | 1.99 ± 0.051 | 1.71 ± 0.076 | 2.19 ± 0.043
7 | YLAKLSKQLSLEEKKKR [IRR1] | 2.65 ± 0.098 | 2.75 ± 0.085 | 2.44 ± 0.11 | 2.86 ± 0.085
8 | YLDQHKRTRLESLKNLN [SMC3] | 2.11 ± 0.097 | 2.23 ± 0.083 | 1.7 ± 0.098 | 2.58 ± 0.21
9 | YLFDEIDAALDKQYRTA [SMC3] | 2.88 ± 0.091 | 2.77 ± 0.097 | 2.61 ± 0.1 | 3.12 ± 0.064
10 | YLFHNDRIIHTWRTQLA [ECM29] | 1.55 ± 0.05 | 1.77 ± 0.042 | 1.47 ± 0.064 | 1.91 ± 0.039
11 | YLKESKRKYDEITHPPS [SWI3] | 2.59 ± 0.17 | 3.39 ± 0.15 | 3.02 ± 0.1 | 3.05 ± 0.11
12 | YLLEELESYLIVHHPYQ [SSN8] | 2.56 ± 0.058 | 2.45 ± 0.06 | 2.43 ± 0.056 | 2.36 ± 0.044
13 | YLMTYPQQPMVKTKTIE [RET1] | 1.81 ± 0.099 | 1.69 ± 0.15 | 1.61 ± 0.24 | 1.08 ± 0.065
14 | YLNGTLIGSIRFPTKFV [RET1] | 2.04 ± 0.075 | 1.6 ± 0.053 | 1.64 ± 0.088 | 1.56 ± 0.044
15 | YLYCLDNNITEMLEENF [YCG1] | 2.3 ± 0.05 | 2.32 ± 0.046 | 2.63 ± 0.05 | 2.73 ± 0.039
16 | YMEQGNNKIITLVKGPK [SKI6] | 2.76 ± 0.054 | 3.11 ± 0.085 | 2.8 ± 0.054 | 2.96 ± 0.034
17 | YMHDTELNYFVGCKNLE [GRR1] | 2.92 ± 0.085 | 2.78 ± 0.081 | 3.08 ± 0.079 | 3.21 ± 0.046
18 | YNEFLYSKAGREELERV [QCR8] | 2.86 ± 0.11 | 2.73 ± 0.19 | 3.35 ± 0.1 | 2.98 ± 0.1
19 | YNNRSLLDFNTALKQYE [RPN6] | 3.32 ± 0.097 | 3.04 ± 0.084 | 3.15 ± 0.067 | 3.13 ± 0.099
20 | YPDLKAFHNNLKFLYLL [MED1] | 2.06 ± 0.059 | 2.04 ± 0.05 | 1.83 ± 0.074 | 1.93 ± 0.037
21 | YPMMHQVRNQVFMLDTK [RGR1] | 2.25 ± 0.08 | 2.35 ± 0.08 | 2.3 ± 0.081 | 2.75 ± 0.068
22 | YPNSSKLKRNSDRREHD [LIN1] | 3.25 ± 0.083 | 3.1 ± 0.067 | 3.02 ± 0.045 | 3.03 ± 0.075
23 | YQCAMGKQAIGAIAYNQ [RET1] | 2.55 ± 0.053 | 2.76 ± 0.06 | 2.78 ± 0.047 | 2.65 ± 0.049
24 | YQISAYQTRARQKARTD [RPR2] | 2.19 ± 0.027 | 2.31 ± 0.026 | 2.36 ± 0.031 | 2.407 ± 0.023

Row | Sequence | protein stability index (doa10∆) | protein stability index (pdr5∆) | protein stability index (san1∆) | protein stability index (ubr1∆)
25 | YQLYTSNPSGNYTGWKA [PRE9] | 2.9 ± 0.065 | 3.08 ± 0.065 | 3.14 ± 0.055 | 3.17 ± 0.04
26 | YQMQSNYESVFTYNKFL [YIL149C/MLP2] | 1.29 ± 0.043 | 1.23 ± 0.028 | 1.55 ± 0.14 | 1.5 ± 0.048
27 | YRTPGSSGVLSSNIAGT [SSN2] | 3.35 ± 0.12 | 3.29 ± 0.1 | 3.03 ± 0.14 | 3.38 ± 0.088
28 | YSIPHPSENLLNIRIQT [RPC19] | 2.1 ± 0.098 | 2.21 ± 0.078 | 2.65 ± 0.12 | 2.38 ± 0.11
29 | YSKAAEPHAVSLAWSAD [ASC1] | 2.81 ± 0.19 | 2.87 ± 0.084 | 2.8 ± 0.065 | 2.72 ± 0.078
30 | YSKAKYPDLQPFVLAEN [CDC53] | 2.3 ± 0.095 | 2.72 ± 0.063 | 2.13 ± 0.07 | 2.26 ± 0.078
31 | YSLQPSVDITGGPWFTD [RPC34] | 1.89 ± 0.079 | 2.54 ± 0.12 | 2.86 ± 0.089 | 2.49 ± 0.064
32 | YSLRLINKEIFHHWLVE [SRB8] | 1.75 ± 0.064 | 1.52 ± 0.081 | 1.55 ± 0.13 | 1.59 ± 0.068
33 | YSPNTLGHPDNYIPGNP [COB] | 2.52 ± 0.11 | 2.27 ± 0.088 | 2.9 ± 0.064 | 2.43 ± 0.047
34 | YSSAPLRTVKEVQFGLF [RPO21] |  | 2.27 ± 0.2 |  | 
35 | YSTLKELLEYSDDIAEN [YCG1] | 2.81 ± 0.048 | 2.84 ± 0.053 | 2.74 ± 0.053 | 2.59 ± 0.04
36 | YTKKHLSSHSSTNSNSK [RPN4] | 3.37 ± 0.14 | 3.11 ± 0.076 | 2.95 ± 0.055 | 2.95 ± 0.061
37 | YTQQQALEYIGAKVKTM [RET1] | 1.97 ± 0.063 | 2.34 ± 0.072 | 2.25 ± 0.086 | 2.1 ± 0.059
38 | YTVNVVDVFAMPQSGTG [RPN11] | 3.08 ± 0.088 | 3.28 ± 0.1 | 3.3 ± 0.063 | 3.07 ± 0.077
39 | YTYLYVRMLASPMLYKV [BRR2] | 1.13 ± 0.12 | 1.19 ± 0.21 | 1.22 ± 0.21 | 1.26 ± 0.11
40 | YVDPETTYTYQQPNPLQ [ROX3] | 2.33 ± 0.087 | 2.31 ± 0.099 | 2.02 ± 0.12 | 2.86 ± 0.12
41 | YVMERPKNVPTSKWLNS [YDL116W/NUP84] | 2.61 ± 0.057 | 2.75 ± 0.055 | 2.63 ± 0.072 | 2.82 ± 0.043
42 | YVNVAISIYNMLPPKSV [SSN2] | 1.71 ± 0.049 | 1.82 ± 0.043 | 2.01 ± 0.062 | 2.12 ± 0.029
43 | YWSDKKADTDTLLYEQI [SNF5] | 2.55 ± 0.079 | 2.61 ± 0.069 | 2.64 ± 0.083 | 2.3 ± 0.049
44 | YYGLVIDLLLLGQERAT [PRP8] | 1.76 ± 0.083 | 1.26 ± 0.053 | 1.23 ± 0.11 | 1.38 ± 0.039
45 | YYLWTGKQVFSLLIKPN [RPO31] | 1.53 ± 0.21 |  |  | 1.59 ± 0.2
46 | YYSRITLLRLNELLDLT [RPN5] | 2.61 ± 0.067 | 1.77 ± 0.048 | 2.44 ± 0.065 | 1.97 ± 0.072
47 | YYVGQVMRNNESTETGY [DIS3] | 3.21 ± 0.069 | 3.19 ± 0.092 | 3.18 ± 0.055 | 3.23 ± 0.064
